The source of these data is doi:10.1101/2022.10.18.22281172.

For assay [1], the target named is human neonatal Fc receptor (human) (UniProt P55899). The experiment in a line: SPR. For orientation: SPR reads the build-up and loss of mass on a sensor chip optically.
Assay [2] deals with cynomolgus macaque FcRn (cynomolgus macaque) (UniProt Q8SPV9). The experiment in a line: SPR.
UniProt Q8SPV9, sequence (Q8SPV9 24-365): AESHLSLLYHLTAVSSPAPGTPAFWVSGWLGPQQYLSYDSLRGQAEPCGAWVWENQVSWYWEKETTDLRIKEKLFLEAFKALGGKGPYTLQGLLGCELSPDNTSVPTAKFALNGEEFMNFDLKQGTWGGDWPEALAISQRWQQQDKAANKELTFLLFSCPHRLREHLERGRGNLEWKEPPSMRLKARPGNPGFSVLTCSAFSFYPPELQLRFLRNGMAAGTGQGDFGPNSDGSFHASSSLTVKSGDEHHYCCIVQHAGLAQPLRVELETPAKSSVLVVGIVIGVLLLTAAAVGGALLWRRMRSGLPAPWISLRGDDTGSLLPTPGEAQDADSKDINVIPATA

UniProt P55899, sequence (P55899 24-365): as the sequence (Q8SPV9 24-365) above, with D39N, Q44E, S99G, G189S, N190S, M217L, T269S, S319V, S332L, I335V counted along it

Take adintrevimab (antibody): the values for the fold higher affinity relative to ADG2 in assay [1] and in assay [2] were 6 fold and 5 fold, respectively.
